Assay results from the RNAGym collection of RNA variant scans (doi:10.1073/pnas.2313332121).
Variants at the floor of the assay were thinned out.

B1: TPR 5TU (parent)
chain: GGAUCUUCUCGAUCUAACAAAAAAGACAAAUCUGCCACAAAGCUUGAGAGCAUCUUCGGAUGCAGAGGCGGCAGCCUUCGGUGGCGCGAUAGCGCCAACGUUCUCAACUAUGACACGCAAAACGCGUGCUCCGUUGAAUGGAGUUUAUCAUG

Variants of: B1
Test: polymerase ribozyme fitness, log enrichment relative to wild type (log ratio); higher = more active; in vitro selection for triplet polymerase activity
Procedure, shortened: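 Streptavidin-bead capture of gel-excised extended constructs, followed by RT-PCR, closed a single triplicate in vitro selection round. That round began by annealing PCR-built, transcribed mutant libraries of each subunit of a heterodimeric triplet polymerase ribozyme with a biotinylated primer, the partner subunit and triplets, then incubating them frozen at −7 °C. After Illumina sequencing of inputs and outputs, genotypes needed ≥10 input reads and ≥1 read per output. Fitness is the base-2 logarithm of genotype enrichment over wild-type enrichment, using inverse-variance-weighted replicate averages.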

Variant | polymerase ribozyme fitness (log ratio)
U56G U146G | -3.46
C57U C85G A142C A150G | ≤ -4.2
C57G G74C | ≤ -4.2
U56G A150C | -3.51
C57U G59C C95G C108U U148A | ≤ -4.2
U56C C87U A89G U101G | -2.81
C57U C116G G124C G141C U145G | ≤ -4.2
C57A G92U C105G | -1.2
C57A G70A G86U C96A C99U U134C U146C | ≤ -4.2
U56C U82G | -0.541
C57G C85U G117U C118G | -1.51
C57U C114G | -2.73
C57A G88U A120C G124A C149A | ≤ -4.2
C57U G70U C79A C93G C105G G143C | ≤ -4.2
C57G G94A G141C | -0.316
C57U G86U | -1.78
C57U G86A | -1.16
C57G G84A C103U A110G | -3.52
C57G G59U C85U | -1.11
C57A U82G G84U C95A | -0.701
C57G G83C C85U A119G | -1.44

Variant | polymerase ribozyme fitness (log ratio)
C57G G84U A89C G112C U139C C149A | ≤ -4.2
C57U C95G | -2.96
C57U C95U | -1.55
U56A U109C | -3.5
C57U G140C | -3.55
U56A U130A A147C | -3.18
C57A C87G | -3.18
C57A C87U | -1.52
C57G G84U U109G G136U | -3.84
U56G C85A C95A | -1.74
C57U A110G | -2.85
C57G G86C | -3.04
C57G G86A | -1
U56G G84U A97U C99G G133U | ≤ -4.2
U56G C63U C93G | -3.47
U56A U82G | 0.243
C57U C95A A97C C123A | -0.924
C57G U78A G84A G94C C103U C105A G133U G140U U144C | ≤ -4.2
C57G A150G | -1.23
C57U A73G G84C C95A C118G | -2.62
C57A A60C C85A | -3.08

Variant | polymerase ribozyme fitness (log ratio)
G58A A66G C93U C99U | ≤ -4.2
C57U C93A G126C | -0.766
C57A A138C | -3.77
U56C G81U G92U C108G | ≤ -4.2
U56A G88U | -3.06
C57U C96G U130A | -3.15
U56G G88U G92U C96U C125A | -3.87
C57G A91G A147C | -3.13
C57U U61A G81C A107U | ≤ -4.2
C57G G141A | 0.453
U56G C93U | -3.02
C57A G133U | -3.13
C57A A113C A119U | -1.37
U56A U78G G92A U144A | ≤ -4.2
U56G G81U A91G | -3.38
C57U G68A C72U G92A | ≤ -4.2
C57U G94U | -0.85
C57U G94A | -0.629
C57A G86U C123U C125U | -0.745
C57U A66C | -3.93
C57A G65A U82G | -0.673

Variant | polymerase ribozyme fitness (log ratio)
C57U A113C | -2.27
C57U G58C A60U G88A C99A | ≤ -4.2
U56G G84U C85A C99U | ≤ -4.2
C57G G59C G86A A142G | -3.23
C57A C76U C85U G92C G126C | -2.15
C57A G70U G80A G83C C87U C108A | ≤ -4.2
U56G G59C C85G U135A | -2.51
C57U U102A C103U | -1.15
U56G G71C C85U C116A | ≤ -4.2
U56C C132U | -1.47
C57A U139A | -3.84
U56G C93U A110U | -3.71
U56A U61A C76G G84A C103G | ≤ -4.2
U56C C57U A89U C95G A137C | -4.07
C57G A121U U135C | -2.26
C57A C69G A91U A119G G128A G140C U145G | ≤ -4.2
U56G U82A A89G C95U G133C | -3.49
C57U A91G A97G U135A G143A | ≤ -4.2
U56A U146A U148C | -2.96
C57U C85U A89C U127A | -4.18
